For 4 molecules, Kd, koff and kon results are on record in patent US20200123267A1 (Genentech, published 2020).

Numbering of substitutions follows the chain as printed. Numbers in names are those of the source.

Experiment [1] concerns the target Human TfR extracellular domain containing an N-terminal His tag (human) (UniProt P02786). Put plainly: SPR, monovalent, TfR captured via anti-His, bispecific injected. On the technique in general: Surface plasmon resonance follows binding to a sensor surface in real time, without labels.
For experiment [2] the target is unchanged. Put plainly: SPR, bispecific antibody.
Experiment [3] deals with T1, TfR (species and construct not stated, Table 13) (Homo sapiens (Human), UniProt P02786 89-760).
T1 construct: not shown: N-terminal His tag of the soluble TfR ecd construct
T1 sequence (P02786 89-760 G142S limits assumed): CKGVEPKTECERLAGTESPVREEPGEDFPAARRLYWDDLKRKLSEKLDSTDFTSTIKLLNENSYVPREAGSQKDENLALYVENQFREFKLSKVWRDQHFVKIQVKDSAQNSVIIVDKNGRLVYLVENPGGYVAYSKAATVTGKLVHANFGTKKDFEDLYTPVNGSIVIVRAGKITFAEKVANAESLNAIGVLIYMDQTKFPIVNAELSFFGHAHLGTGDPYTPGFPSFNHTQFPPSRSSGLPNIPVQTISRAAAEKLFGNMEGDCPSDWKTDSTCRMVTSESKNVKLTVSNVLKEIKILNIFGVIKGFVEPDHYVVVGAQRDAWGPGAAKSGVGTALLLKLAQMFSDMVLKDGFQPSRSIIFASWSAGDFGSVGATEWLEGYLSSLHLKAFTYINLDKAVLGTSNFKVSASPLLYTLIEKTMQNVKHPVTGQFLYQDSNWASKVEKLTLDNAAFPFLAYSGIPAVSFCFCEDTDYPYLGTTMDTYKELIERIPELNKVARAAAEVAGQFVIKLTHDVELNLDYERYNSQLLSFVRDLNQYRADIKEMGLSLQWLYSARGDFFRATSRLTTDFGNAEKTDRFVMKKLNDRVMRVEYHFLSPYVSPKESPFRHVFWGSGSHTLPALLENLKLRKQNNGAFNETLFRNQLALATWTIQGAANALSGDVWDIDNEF
Put plainly: kinetic measurement, method not stated.

Chain of Human TfR extracellular domain containing an N-terminal His tag (human) (P02786 89-760 G142S): as the sequence (P02786 89-760 G142S limits assumed) above

B1: anti-TfR^2/BACE1 bispecific antibody (15G11.W92A arm, human IgG1 D265A N297G, knob in hole) (bispecific antibody, part only; not given: Anti-BACE1 arm and constant regions, V domains shown, not shown: another chain or arm of the molecule; a dimerising Fc or GST; small tags and cut ends)
VH: EVQLVQSGAEVKKPGASVKVSCKASGYTFTSYWMHWVRQAPGQRLEWIGEINPTNGRTNYIEKFKSRATLTVDKSASTAYMELSSLRSEDTAVYYCARGTRAYHYWGQGTMVTVSS
VL: DIQMTQSPSSLSASVGDRVTITCRASDNLYSNLAWYQQKPGKSPKLLVYDATNLADGVPSRFSGSGSGTDYTLTISSLQPEDFATYYCQHFAGTPLTFGQGTKVEIK
In experiment [1], B1 displayed a Kd of 295 nM, a koff of 0.0377 s⁻¹ and a kon of 128000 M⁻¹ s⁻¹. The molecule further returned a Kd in experiment [2] of 270 nM.

B2: anti-TfR^1/BACE1 bispecific antibody (15G11.v5 arm, human IgG1 D265A N297G, knob in hole) (bispecific antibody, part only; not given: Anti-BACE1 arm and constant regions, V domains shown, not shown: another chain or arm of the molecule; a dimerising Fc or GST; small tags and cut ends)
VH: B1 VH
VL: B1 VL with A92W
In the case of B2, the Kd in experiment [2] was determined as 10 nM.

B3: antiTfR.52A.M108L.Fab (Fab, V domains shown)
VH: B1 VH with N52A, M111L
VL: B1 VL with A92W
notes: Fab; also called anti-TfR Fab comprising the M108L mutation
In experiment [3], B3 displayed a koff of 0.0231 s⁻¹ and a kon of 320000 M⁻¹ s⁻¹.

B4: Hu15G11.HC52A Fab (Fab, V domains shown)
VH: B1 VH with N52A
VL: B1 VL with A92W
notes: Fab; also called antiTfR.52A.Fab; 15G11.52A Fab
B4: in experiment [3], the dissociation rate constant (koff) stood at 0.0204 s⁻¹ and the kon amounted to 371000 M⁻¹ s⁻¹.

As a reminder, the Kd is the concentration at which binding is half-saturated. Lower therefore signals a tighter complex. Usually koff stands for a measure of how fast the partners let go of each other. Lower therefore signals a long-lived complex. Usually kon stands for the second-order rate constant of association. A high value points to fast association.
